Reference: paper doi:10.1101/713511

Assays:
YDL085C-A = biological target: T1, YDL085C-A (S. cerevisiae, UniProt Q3E7B7 1-68); assay: fluorescence anisotropy
T1 sequence: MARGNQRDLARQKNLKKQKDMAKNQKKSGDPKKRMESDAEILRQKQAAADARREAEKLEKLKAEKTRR

SERF1a [1] = biological target: T2, SERF1a (human, UniProt O75920-2 1-62); assay: fluorescence anisotropy
T2 sequence: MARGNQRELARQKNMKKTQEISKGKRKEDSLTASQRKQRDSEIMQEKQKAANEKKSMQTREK

Atto550-SERF1a [2] = biological target: T3, Atto550-SERF1a (human, UniProt O75920-2 1-62); assay: fluorescence anisotropy
T3 sequence: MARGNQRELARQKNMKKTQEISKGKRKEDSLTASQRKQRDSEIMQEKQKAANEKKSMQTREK

Atto550-SERF1a [3] = biological target: T3, Atto550-SERF1a; assay: fluorescence anisotropy; remark: listed apart in the source
SERF1a [4] = biological target: T2, SERF1a; assay: ITC

ACUGCUAGAGAUUUUCCACAU (ssRNA) [Cy3-R21(-)]
Kd (YDL085C-A): 2.35 ± 0.56 µM
Kd (SERF1a [1]): 4.81 ± 0.48 µM

B1: dsDNA 21mer (dsDNA)
DNA 1: ATGTGGAAAATCTCTAGCAGT
DNA 2: ACTGCTAGAGATTTTCCACAT
binding result (Atto550-SERF1a [2]): no binding

ACUGCUAGAGAUUUUCCACAU (ssRNA) [R21(-) / 21R(-)]
Kd (Atto550-SERF1a [3]): 4.39 ± 1.59 µM
Kd (SERF1a [4]): 5.99 ± 2.32 µM
